Results from article PMC3145977, “Thermostabilisation of an Agonist-Bound Conformation of the Human Adenosine A2A Receptor” (Journal of Molecular Biology, 2011).

What follows are molecules tested on [^3H]ZM241385-bound A2AR (assay: Thermostability assay of detergent-solubilised receptor with [3H]ZM241385 bound). Details: not given.
Assay type: physicochemical, human
Experimental: An aliquot of E. coli cells (14 mL) was thawed on ice and resupended in 500 μL of buffer A [50 mM Tris–HCl (pH 7.4), 0.4 M NaCl, 250 μg/mL lysozyme (Sigma) and 1 mg/mL DNase I (Sigma), supplemented with complete ethylenediaminetetraacetic acid (EDTA)-free Protease inhibitor cocktail (Roche)] and incubated for 1 h at 4 °C. Samples were then sonicated for 1 min at 4 °C using a cup-horn sonicator. The receptors were solubilised by adding 1% DDM and incubated for 1 h at 4 °C. Insoluble material was removed by centrifugation (5 min, 13,000g, 4 °C). The solubilised receptors were partially purified with Ni-NTA agarose (Qiagen). Agarose beads (300 μL) pre-equilibrated in buffer A were added to 700 μL of solubilised receptor. […].
The sample was incubated for 45 min at 4 °C, then 30 min at the specified temperature and then 30 min at 4 °C. Receptor-bound and free radioligands were separated as previously described on mini gel-filtration columns.[26] Receptor-bound ligands were transferred to a 96-well plate (PerkinElmer) and mixed with 200 μL of Optiphase supermix (PerkinElmer). The bound ^3H-labeled ligand was determined using a 1450 Microbeta Trilux counter (1 min per sample).

Row | Molecule | Apparent Tm, Antagonist [^3H]ZM241385 [°C] | ΔTm, Antagonist [^3H]ZM241385
1 | A54L: A2AR point mutant A54L (protein, UniProt P29274 1-412, looked up, variant A54L) Adenosine receptor A2a: MPIMGSSVYITVELAIAVLAILGNVLVCWAVWLNSNLQNVTNYFVVSLAAADILVGVLAIPFAITISTGFCAACHGCLFIACFVLVLTQSSIFSLLAIAIDRYIAIRIPLRYNGLVTGTRAKGIIAICWVLSFAIGLTPMLGWNNCGQPKEGKNHSQGCGEGQVACLFEDVVPMNYMVYFNFFACVLVPLLLMLGVYLRIFLAARRQLKQMESQPLPGERARSTLQKEVHAAKSLAIIVGLFALCWLPLHIINCFTFFCPDCSHAPLWLMYLAIVLSHTNSVVNPFIYAYRIREFRQTFRKIIRSHVLRQQEPFKAAGTSARVLAAHGSDGEQVSLRLNGHPPGVWANGSAPHPERRPNGYALGLVSGGSAQESQGNTGLPDVELLSHELKGVCPEPPGLDDPLAQDGAGVS | 38 | + 6 °C
2 | F83A: A2AR point mutant F83A (protein, UniProt P29274 1-412, looked up, variant F83A) Adenosine receptor A2a: MPIMGSSVYITVELAIAVLAILGNVLVCWAVWLNSNLQNVTNYFVVSLAAADIAVGVLAIPFAITISTGFCAACHGCLFIACAVLVLTQSSIFSLLAIAIDRYIAIRIPLRYNGLVTGTRAKGIIAICWVLSFAIGLTPMLGWNNCGQPKEGKNHSQGCGEGQVACLFEDVVPMNYMVYFNFFACVLVPLLLMLGVYLRIFLAARRQLKQMESQPLPGERARSTLQKEVHAAKSLAIIVGLFALCWLPLHIINCFTFFCPDCSHAPLWLMYLAIVLSHTNSVVNPFIYAYRIREFRQTFRKIIRSHVLRQQEPFKAAGTSARVLAAHGSDGEQVSLRLNGHPPGVWANGSAPHPERRPNGYALGLVSGGSAQESQGNTGLPDVELLSHELKGVCPEPPGLDDPLAQDGAGVS | 16.5 | − 15.5 °C
3 | A236L: A2AR point mutant A236L (protein, UniProt P29274 1-412, looked up, variant A236L) Adenosine receptor A2a: MPIMGSSVYITVELAIAVLAILGNVLVCWAVWLNSNLQNVTNYFVVSLAAADIAVGVLAIPFAITISTGFCAACHGCLFIACFVLVLTQSSIFSLLAIAIDRYIAIRIPLRYNGLVTGTRAKGIIAICWVLSFAIGLTPMLGWNNCGQPKEGKNHSQGCGEGQVACLFEDVVPMNYMVYFNFFACVLVPLLLMLGVYLRIFLAARRQLKQMESQPLPGERARSTLQKEVHAAKSLLIIVGLFALCWLPLHIINCFTFFCPDCSHAPLWLMYLAIVLSHTNSVVNPFIYAYRIREFRQTFRKIIRSHVLRQQEPFKAAGTSARVLAAHGSDGEQVSLRLNGHPPGVWANGSAPHPERRPNGYALGLVSGGSAQESQGNTGLPDVELLSHELKGVCPEPPGLDDPLAQDGAGVS | 38 | + 6 °C
4 | V57A: A2AR point mutant V57A (protein, UniProt P29274 1-412, looked up, variant V57A) Adenosine receptor A2a: MPIMGSSVYITVELAIAVLAILGNVLVCWAVWLNSNLQNVTNYFVVSLAAADIAVGALAIPFAITISTGFCAACHGCLFIACFVLVLTQSSIFSLLAIAIDRYIAIRIPLRYNGLVTGTRAKGIIAICWVLSFAIGLTPMLGWNNCGQPKEGKNHSQGCGEGQVACLFEDVVPMNYMVYFNFFACVLVPLLLMLGVYLRIFLAARRQLKQMESQPLPGERARSTLQKEVHAAKSLAIIVGLFALCWLPLHIINCFTFFCPDCSHAPLWLMYLAIVLSHTNSVVNPFIYAYRIREFRQTFRKIIRSHVLRQQEPFKAAGTSARVLAAHGSDGEQVSLRLNGHPPGVWANGSAPHPERRPNGYALGLVSGGSAQESQGNTGLPDVELLSHELKGVCPEPPGLDDPLAQDGAGVS | 38 | + 6 °C
5 | S90A: A2AR point mutant S90A (protein, UniProt P29274 1-412, looked up, variant S90A) Adenosine receptor A2a: MPIMGSSVYITVELAIAVLAILGNVLVCWAVWLNSNLQNVTNYFVVSLAAADIAVGVLAIPFAITISTGFCAACHGCLFIACFVLVLTQASIFSLLAIAIDRYIAIRIPLRYNGLVTGTRAKGIIAICWVLSFAIGLTPMLGWNNCGQPKEGKNHSQGCGEGQVACLFEDVVPMNYMVYFNFFACVLVPLLLMLGVYLRIFLAARRQLKQMESQPLPGERARSTLQKEVHAAKSLAIIVGLFALCWLPLHIINCFTFFCPDCSHAPLWLMYLAIVLSHTNSVVNPFIYAYRIREFRQTFRKIIRSHVLRQQEPFKAAGTSARVLAAHGSDGEQVSLRLNGHPPGVWANGSAPHPERRPNGYALGLVSGGSAQESQGNTGLPDVELLSHELKGVCPEPPGLDDPLAQDGAGVS | 32 | 0 °C
6 | Q89A: A2AR point mutant Q89A (protein, UniProt P29274 1-412, looked up, variant Q89A) Adenosine receptor A2a: MPIMGSSVYITVELAIAVLAILGNVLVCWAVWLNSNLQNVTNYFVVSLAAADIAVGVLAIPFAITISTGFCAACHGCLFIACFVLVLTASSIFSLLAIAIDRYIAIRIPLRYNGLVTGTRAKGIIAICWVLSFAIGLTPMLGWNNCGQPKEGKNHSQGCGEGQVACLFEDVVPMNYMVYFNFFACVLVPLLLMLGVYLRIFLAARRQLKQMESQPLPGERARSTLQKEVHAAKSLAIIVGLFALCWLPLHIINCFTFFCPDCSHAPLWLMYLAIVLSHTNSVVNPFIYAYRIREFRQTFRKIIRSHVLRQQEPFKAAGTSARVLAAHGSDGEQVSLRLNGHPPGVWANGSAPHPERRPNGYALGLVSGGSAQESQGNTGLPDVELLSHELKGVCPEPPGLDDPLAQDGAGVS | 26 | − 8 °C
7 | T65A: A2AR point mutant T65A (protein, UniProt P29274 1-412, looked up, variant T65A) Adenosine receptor A2a: MPIMGSSVYITVELAIAVLAILGNVLVCWAVWLNSNLQNVTNYFVVSLAAADIAVGVLAIPFAIAISTGFCAACHGCLFIACFVLVLTQSSIFSLLAIAIDRYIAIRIPLRYNGLVTGTRAKGIIAICWVLSFAIGLTPMLGWNNCGQPKEGKNHSQGCGEGQVACLFEDVVPMNYMVYFNFFACVLVPLLLMLGVYLRIFLAARRQLKQMESQPLPGERARSTLQKEVHAAKSLAIIVGLFALCWLPLHIINCFTFFCPDCSHAPLWLMYLAIVLSHTNSVVNPFIYAYRIREFRQTFRKIIRSHVLRQQEPFKAAGTSARVLAAHGSDGEQVSLRLNGHPPGVWANGSAPHPERRPNGYALGLVSGGSAQESQGNTGLPDVELLSHELKGVCPEPPGLDDPLAQDGAGVS | 38 | + 6 °C
8 | I238A: A2AR point mutant I238A (protein, UniProt P29274 1-412, looked up, variant I238A) Adenosine receptor A2a: MPIMGSSVYITVELAIAVLAILGNVLVCWAVWLNSNLQNVTNYFVVSLAAADIAVGVLAIPFAITISTGFCAACHGCLFIACFVLVLTQSSIFSLLAIAIDRYIAIRIPLRYNGLVTGTRAKGIIAICWVLSFAIGLTPMLGWNNCGQPKEGKNHSQGCGEGQVACLFEDVVPMNYMVYFNFFACVLVPLLLMLGVYLRIFLAARRQLKQMESQPLPGERARSTLQKEVHAAKSLAIAVGLFALCWLPLHIINCFTFFCPDCSHAPLWLMYLAIVLSHTNSVVNPFIYAYRIREFRQTFRKIIRSHVLRQQEPFKAAGTSARVLAAHGSDGEQVSLRLNGHPPGVWANGSAPHPERRPNGYALGLVSGGSAQESQGNTGLPDVELLSHELKGVCPEPPGLDDPLAQDGAGVS | 36 | + 4 °C

Same assay, conditions: at 4 °C; 100 nM radioligand

Row | Molecule | Binding of [^3H]ZM241385
9 | F62A: A2AR point mutant F62A (protein, UniProt P29274 1-412, looked up, variant F62A) Adenosine receptor A2a: MPIMGSSVYITVELAIAVLAILGNVLVCWAVWLNSNLQNVTNYFVVSLAAADIAVGVLAIPAAITISTGFCAACHGCLFIACFVLVLTQSSIFSLLAIAIDRYIAIRIPLRYNGLVTGTRAKGIIAICWVLSFAIGLTPMLGWNNCGQPKEGKNHSQGCGEGQVACLFEDVVPMNYMVYFNFFACVLVPLLLMLGVYLRIFLAARRQLKQMESQPLPGERARSTLQKEVHAAKSLAIIVGLFALCWLPLHIINCFTFFCPDCSHAPLWLMYLAIVLSHTNSVVNPFIYAYRIREFRQTFRKIIRSHVLRQQEPFKAAGTSARVLAAHGSDGEQVSLRLNGHPPGVWANGSAPHPERRPNGYALGLVSGGSAQESQGNTGLPDVELLSHELKGVCPEPPGLDDPLAQDGAGVS | did not bind
10 | F242A: A2AR point mutant F242A (protein, UniProt P29274 1-412, looked up, variant F242A) Adenosine receptor A2a: MPIMGSSVYITVELAIAVLAILGNVLVCWAVWLNSNLQNVTNYFVVSLAAADIAVGVLAIPFAITISTGFCAACHGCLFIACFVLVLTQSSIFSLLAIAIDRYIAIRIPLRYNGLVTGTRAKGIIAICWVLSFAIGLTPMLGWNNCGQPKEGKNHSQGCGEGQVACLFEDVVPMNYMVYFNFFACVLVPLLLMLGVYLRIFLAARRQLKQMESQPLPGERARSTLQKEVHAAKSLAIIVGLAALCWLPLHIINCFTFFCPDCSHAPLWLMYLAIVLSHTNSVVNPFIYAYRIREFRQTFRKIIRSHVLRQQEPFKAAGTSARVLAAHGSDGEQVSLRLNGHPPGVWANGSAPHPERRPNGYALGLVSGGSAQESQGNTGLPDVELLSHELKGVCPEPPGLDDPLAQDGAGVS | did not bind
11 | F79A: A2AR point mutant F79A (protein, UniProt P29274 1-412, looked up, variant F79A) Adenosine receptor A2a: MPIMGSSVYITVELAIAVLAILGNVLVCWAVWLNSNLQNVTNYFVVSLAAADIAVGVLAIPFAITISTGFCAACHGCLAIACFVLVLTQSSIFSLLAIAIDRYIAIRIPLRYNGLVTGTRAKGIIAICWVLSFAIGLTPMLGWNNCGQPKEGKNHSQGCGEGQVACLFEDVVPMNYMVYFNFFACVLVPLLLMLGVYLRIFLAARRQLKQMESQPLPGERARSTLQKEVHAAKSLAIIVGLFALCWLPLHIINCFTFFCPDCSHAPLWLMYLAIVLSHTNSVVNPFIYAYRIREFRQTFRKIIRSHVLRQQEPFKAAGTSARVLAAHGSDGEQVSLRLNGHPPGVWANGSAPHPERRPNGYALGLVSGGSAQESQGNTGLPDVELLSHELKGVCPEPPGLDDPLAQDGAGVS | did not bind
